Measurements: paper PMC10629557
Each block holds one substance with its values, some of them ahead of it.

Tests used:
[1] = target: phosphorylated origin recognition complex (ORC treated with Clb5-Cdk1 and ATP) (S. cerevisiae) (UniProt P54784); assay: colocalization single-molecule spectroscopy (CoSMoS); surface-tethered ARS1 DNA^AF488; 2.5 nM ORC, 10 nM Cdc6, 2.5 nM labeled Mcm2-7-Cdt1, ATP; time to the first Mcm2-7 association with each DNA, taken by the paper as OCCM formation; apparent first-order association rate, background binding at non-DNA sites fitted; conditions: remark: other sources report otherwise
[2] = target: origin recognition complex (ORC), wild type, unphosphorylated (S. cerevisiae) (UniProt P54784); assay: as above; conditions: remark: other sources report otherwise
[3] = target: ORC^6C-DY549, wild type, without CDK treatment (S. cerevisiae) (UniProt P54784); assay: FRET or BRET; single-molecule FRET on surface-tethered ARS1 DNA between ORC^6C-DY549 (donor on Orc6 C-terminus) and Mcm2-7^3N-DY650 (acceptor on Mcm3 N terminus), with Cdc6 and Cdt1; MO complex (ORC on the N-terminal face of Mcm2-7) scored if E_FRET > 0.5 for two consecutive frames; low E_FRET in the OCCM
Mcm4 = Mcm4 (UniProt P30665); assay: CoSMoS: labelled Mcm2-7 arrival at ORC-Cdc6-bound DNA; conditions: reference: wild-type ORC, no CDK

apparent first-order association rate ka of first Mcm2-7-Cdt1 recruitment (OCCM formation) [1]: 0.002 s⁻¹
apparent first-order association rate ka of first Mcm2-7-Cdt1 recruitment (OCCM formation) [2]: 0.0047 s⁻¹
Substance: Cdt1-Mcm2-7^4SNAP-JF646 (Mcm2-7-Cdt1 complex, Mcm2-7 fluorescently labeled at the N-terminus of Mcm4), P29469 1-868; P24279 1-971; P30665 1-933; P29496 1-775; P53091 1-1017; P38132 1-845; P47112 1-604

percent of first Mcm2-7 landings with the high-E FRET state (MO complex formation) [3]: 21%
Substance: Mcm2-7^3N-DY650 (Mcm2-7 complex with an acceptor fluorophore at the N terminus of Mcm3) (from UniProt P29469 1-868; P24279 1-971; P30665 1-933; P29496 1-775; P53091 1-1017; P38132 1-845)

other: apparent association rate ka (Mcm4): weaker; reference 0.0047 ± 0.0003
Substance: Orc6 (from UniProt P38826) wild-type ORC treated with Clb5-Cdk1 and ATP
